The results in this text go back to paper PMC11053944, “FRET Assays for the Identification of C. albicans HSP90-Sba1 and Human HSP90α-p23 Binding Inhibitors” (Pharmaceuticals, 2024).

Data set [1] concerns the molecule itself. The experiment in a line: cross-linking; glutaraldehyde cross-linking and SDS-PAGE (Coomassie): 10 µM HSP90 with equimolar Sba1 or mScarlet-I, reaction buffer, 15 min 30 °C, 5 mM ATP or 2 mM AMP-PNP; cross-linking 2 min at room temperature.
In the next data set the target is T1, human HSP90α-mNeonGreen (human, UniProt P07900 1-732).
T1 construct: human HSP90α, UniProt P07900; DNA from a plasmid of a previous work of the lab; Cloned by restriction-ligation on the basis of the C. albicans FRET plasmids (His6, FXa site, protein, mNeonGreen at the C-terminus); also called His6-HSP90α-mNeonGreen; source: E. coli Rosetta2(DE3) pLysS, purified (Ni-NTA, gel filtration); not shown: mNeonGreen, C-terminal, kept
As to the kind of experiment: FRET or BRET; competition, human: 1 µM HSP90α-mNeonGreen and 1 µM p23-mScarlet-I with unlabeled p23 0-50,000 nM (lowest non-zero 23 nM), reaction buffer with 5 mM ATP; relative IC50 (four parameters), Ki by One Site - Fit Ki. The following applies: both partners purified. (In general: BRET reads energy transfer from a luciferase to a nearby fluorophore.)

The target of data set [2] is T2, human HSP90αE47A-mNeonGreen (human, UniProt P07900 1-732, E47A).
T2 construct: human HSP90α, UniProt P07900, ATP-hydrolysis-defective mutant E47A; As m3 with E47A; also called His6-HSP90αE47A-mNeonGreen; source: E. coli Rosetta2(DE3) pLysS, purified (Ni-NTA, gel filtration); not shown: mNeonGreen, C-terminal, kept
The experiment in a line: FRET or BRET; Kd determination, human: 200 nM HSP90αE47A-mNeonGreen, p23-mScarlet-I 0-3000 nM (lowest non-zero 10 nM), reaction buffer with 5 mM ATP, 37 °C, measured after 180 min; mNeonGreen control subtracted; nonlinear regression. Particulars: both partners purified.

For data set [3], the target named is T3, C. albicans HSP90E36A-mNeonGreen (C. albicans, UniProt P46598 1-707, E36A).
T3 construct: HSP90 of C. albicans, UniProtKB P46598, ATP-hydrolysis-defective mutant E36A; As m1 with E36A; GGGGS linker before mNeonGreen; also called His6-HSP90E36A-mNeonGreen; source: E. coli BL21(DE3), purified (Ni-NTA, gel filtration); not shown: mNeonGreen, C-terminal, kept
As to the kind of experiment: FRET or BRET; Kd determination, C. albicans: 200 nM HSP90E36A-mNeonGreen, Sba1-mScarlet-I 0-3000 nM (lowest non-zero 10 nM), reaction buffer with 5 mM ATP, 30 °C (text; the legend of Figure 2 says 37 °C), measured after 180 min; mNeonGreen control subtracted; nonlinear regression. Particulars: both partners purified.

Data set [4] has as its target T4, C. albicans HSP90-mNeonGreen (C. albicans, UniProt P46598 1-707).
T4 construct: HSP90 of C. albicans, UniProtKB P46598; pET-11d: N-terminal His6, FXa site, XhoI site, protein, KpnI site; mNeonGreen joined to the C-terminus of HSP90 by a flexible linker GGGGS; No cleavage of the His6 tag is told; also called His6-HSP90-mNeonGreen; source: E. coli BL21(DE3), purified (Ni-NTA, gel filtration); not shown: mNeonGreen, C-terminal, kept
As to the kind of experiment: FRET or BRET; competition, C. albicans: 1 µM HSP90-mNeonGreen and 1 µM Sba1-mScarlet-I with unlabeled Sba1 0-25,000 nM (lowest non-zero 12 nM), reaction buffer with 5 mM ATP; relative IC50 (four parameters), Ki by One Site - Fit Ki. The following applies: both partners purified.

Where “and” joins values, the source holds several entries; their conditions need not be identical. Equal values may be shown once.

B1: C. albicans HSP90 (without fluorescent protein) (natural protein)
chain: not shown
notes: HSP90 of C. albicans, UniProtKB P46598; Printed mass of the monomer 82.5 kDa, dimer 165 kDa; N-terminal His6 followed by an FXa site; also called His6-HSP90; source: E. coli BL21(DE3), purified (Ni-NTA, gel filtration)
One may read the stoichiometry N as the number of molecules, sites or subunits per partner or assembly. Regarding B1, the “stoichiometry N” value in data set [1] is 2.

B2: human p23 (unlabeled) (natural protein, UniProt Q15185 1-160, looked up)
chain: MQPASAKWYDRRDYVFIEFCVEDSKDVNVNFEKSKLTFSCLGGSDNFKHLNEIDLFHCIDPNDSKHKRTDRSILCCLRKGESGQSWPRLTKERAKLNWLSVDFNNWKDWEDDSDEDMSNFDRFSEMMNNMGGDEDVDLPEVDGADDDSQDSDDEKMPDLE
notes: human p23, UniProt Q15185; N-terminal His6 followed by an FXa site; also called His6-p23; unlabeled p23; source: E. coli Rosetta2(DE3) pLysS, purified (Ni-NTA, gel filtration)
The term IC50 denotes the concentration that inhibits the measured activity by half. The low end stands for higher potency, the high end for lower potency. What is called Ki is the equilibrium dissociation constant of an inhibitor or competing ligand from its target. In the data set with human HSP90α-mNeonGreen, B2 displayed a concentration for half-maximal inhibition (IC50) of 1420 nM and a Ki of 100 nM.

B3: human p23-mScarlet-I (natural protein, UniProt Q15185 1-160, looked up)
chain: MQPASAKWYDRRDYVFIEFCVEDSKDVNVNFEKSKLTFSCLGGSDNFKHLNEIDLFHCIDPNDSKHKRTDRSILCCLRKGESGQSWPRLTKERAKLNWLSVDFNNWKDWEDDSDEDMSNFDRFSEMMNNMGGDEDVDLPEVDGADDDSQDSDDEKMPDLE
notes: human p23, UniProt Q15185; Cloned by restriction-ligation on the basis of the C. albicans FRET plasmids (His6, FXa site, protein, mScarlet-I at the C-terminus); also called His6-p23-mScarlet-I; source: E. coli Rosetta2(DE3) pLysS, purified (Ni-NTA, gel filtration); not shown: mScarlet-I, C-terminal, kept
As a reminder, the Kd is the concentration at which binding is half-saturated. Low readings indicate higher affinity, high ones lower affinity. With B3, in data set [2], the Kd is 210 nM and 220 nM.

B4: C. albicans Sba1-mScarlet-I (natural protein, UniProt A0A1D8PQ94 1-221, looked up)
chain: MSSTTTQTPTVLWAQRSSEDDAAKNIIYLTIQISDPIDLKIDLKSDHLIIDSKSNDSVYSSIDYHLQIDFFKEIDPDQSKINTENGSHIFMILRKKDQQEEYWPRLTKEKLKYHYIKTDFDKWVDEDEQDEVKDDPNDFGGPGGPGGAMDFSQMLSGMGGLGGAGGSGGPGGVDLSALASQLGQAGGAGGAAGLDGEEGEEGEAEAKEAQEESNTTATEKE
notes: Sba1 of C. albicans, UniProtKB A0A1D8PQ94; mScarlet-I fused to the 3' end of Sba1, analogously to HSP90-mNeonGreen (there with a GGGGS linker); N-terminal His6 followed by an FXa site; also called His6-Sba1-mScarlet-I; source: E. coli BL21(DE3), purified (Ni-NTA, gel filtration); not shown: mScarlet-I, C-terminal, kept
For B4, in data set [3], the Kd worked out at 100 nM.

B5: C. albicans Sba1 (unlabeled) (natural protein, UniProt A0A1D8PQ94 1-221, looked up)
chain: MSSTTTQTPTVLWAQRSSEDDAAKNIIYLTIQISDPIDLKIDLKSDHLIIDSKSNDSVYSSIDYHLQIDFFKEIDPDQSKINTENGSHIFMILRKKDQQEEYWPRLTKEKLKYHYIKTDFDKWVDEDEQDEVKDDPNDFGGPGGPGGAMDFSQMLSGMGGLGGAGGSGGPGGVDLSALASQLGQAGGAGGAAGLDGEEGEEGEAEAKEAQEESNTTATEKE
notes: Sba1 of C. albicans, UniProtKB A0A1D8PQ94; N-terminal His6 followed by an FXa site; also called His6-Sba1; unlabeled Sba1; source: E. coli BL21(DE3), purified (Ni-NTA, gel filtration)
Consider B5, for which, in data set [4], the IC50 came out at 1950 nM and the Ki came out at 100 nM.
